Source: PMC6405930, “Conservation of the Amyloid Interactome Across Diverse Fibrillar Structures” (Scientific Reports, 2019)

B1: Mimecan: CSF protein bound to fibrils (protein, UniProt P20774 21-298, looked up)
Mimecan: PPTQQDSRIIYDYGTDNFEESIFSQDYEDKYLDGKNIKEKETVIIPNEKSLQLQKDEAITPLPPKKENDEMPTCLLCVCLSGSVYCEEVDIDAVPPLPKESAYLYARFNKIKKLTAKDFADIPNLRRLDFTGNLIEDIEDGTFSKLSLLEELSLAENQLLKLPVLPPKLTLFNAKYNKIKSRGIKANAFKKLNNLTFLYLDHNALESVPLNLPESLRVIHLQFNNIASITDDTFCKANDTSYIRDRIEEIRLEGNPIVLGKHPNSFICLKRLPIGSYF
B2: SPARC-like protein 1: CSF protein bound to fibrils (protein, UniProt Q14515 17-664, looked up)
SPARC-like protein 1: IPTNARLLSDHSKPTAETVAPDNTAIPSLRAEAEENEKETAVSTEDDSHHKAEKSSVLKSKEESHEQSAEQGKSSSQELGLKDQEDSDGHLSVNLEYAPTEGTLDIKEDMSEPQEKKLSENTDFLAPGVSSFTDSNQQESITKREENQEQPRNYSHHQLNRSSKHSQGLRDQGNQEQDPNISNGEEEEEKEPGEVGTHNDNQERKTELPREHANSKQEEDNTQSDDILEESDQPTQVSKMQEDEFDQGNQEQEDNSNAEMEEENASNVNKHIQETEWQSQEGKTGLEAISNHKETEEKTVSEALLMEPTDDGNTTPRNHGVDDDGDDDGDDGGTDGPRHSASDDYFIPSQAFLEAERAQSIAYHLKIEEQREKVHENENIGTTEPGEHQEAKKAENSSNEEETSSEGNMRVHAVDSCMSFQCKRGHICKADQQGKPHCVCQDPVTCPPTKPLDQVCGTDNQTYASSCHLFATKCRLEGTKKGHQLQLDYFGACKSIPTCTDFEVIQFPLRMRDWLKNILMQLYEANSEHAGYLNEKQRNKVKKIYLDEKRLLAGDHPIDLLLRDFKKNYHMYVYPVHWQFSELDQHPMDRVLTHSELAPLRASLVPMEHCITRFFEECDPNKDKHITLKEWGHCFGIKEEDIDENLLF
B3: Vitamin D-binding protein: CSF protein bound to fibrils (protein, UniProt P02774 17-474, looked up)
Vitamin D-binding protein: LERGRDYEKNKVCKEFSHLGKEDFTSLSLVLYSRKFPSGTFEQVSQLVKEVVSLTEACCAEGADPDCYDTRTSALSAKSCESNSPFPVHPGTAECCTKEGLERKLCMAALKHQPQEFPTYVEPTNDEICEAFRKDPKEYANQFMWEYSTNYGQAPLSLLVSYTKSYLSMVGSCCTSASPTVCFLKERLQLKHLSLLTTLSNRVCSQYAAYGEKKSRLSNLIKLAQKVPTADLEDVLPLAEDITNILSKCCESASEDCMAKELPEHTVKLCDNLSTKNSKFEDCCQEKTAMDVFVCTYFMPAAQLPELPDVELPTNKDVCDPGNTKVMDKYTFELSRRTHLPEVFLSKVLEPTLKSLGECCDVEDSTTCFNAKGPLLKKELSSFIDKGQELCADYSENTFTEYKKKLAERLKAKLPDATPTELAKLVNKHSDFASNCCSINSPPLYCDSEIDAELKNIL
B4: EGF-containing fibulin-like extracellular matrix protein 1: CSF protein bound to fibrils (protein, UniProt Q12805 18-493, looked up)
EGF-containing fibulin-like …: QDTEETITYTQCTDGYEWDPVRQQCKDIDECDIVPDACKGGMKCVNHYGGYLCLPKTAQIIVNNEQPQQETQPAEGTSGATTGVVAASSMATSGVLPGGGFVASAAAVAGPEMQTGRNNFVIRRNPADPQRIPSNPSHRIQCAAGYEQSEHNVCQDIDECTAGTHNCRADQVCINLRGSFACQCPPGYQKRGEQCVDIDECTIPPYCHQRCVNTPGSFYCQCSPGFQLAANNYTCVDINECDASNQCAQQCYNILGSFICQCNQGYELSSDRLNCEDIDECRTSSYLCQYQCVNEPGKFSCMCPQGYQVVRSRTCQDINECETTNECREDEMCWNYHGGFRCYPRNPCQDPYILTPENRCVCPVSNAMCRELPQSIVYKYMSIRSDRSVPSDIFQIQATTIYANTINTFRIKSGNENGEFYLRQTSPVSAMLVLVKSLSGPREHIVDLEMLTVSSIGTFRTSSVLRLTIIVGPFSF

System: T1, Ab1 fibrils
T1 construct: Synthetic amyloid β peptide 1–40 was purchased from Caslo Aps (Lyngby, Denmark); purchased Caslo Aps (Lyngby, Denmark); host or cells: synthetic peptide
Assay: Fibril incubation with CSF, quantitative MS/MS of bound proteins
Type: binding, human
Conditions: 4:1 w/w CSF protein:fibril
Protocol: (§1) Plasma and CSF solutions were centrifuged (40,000 g, 20 min) to remove any aggregates. The protein concentration was determined using 280 nm absorbance assuming 1 Abs = 1 mg/mL. […] Control samples (without fibril material) were prepared similarly. All samples were incubated at room temperature for one hour under gentle agitation. Fibrils and fibril-bound proteins were pelleted by centrifugation at 17,000 g for 30 minutes. The supernatant (175 μL) was removed and the aggregate was re-suspended in 175 μL PBS and pelleted again before further preparation for gel analysis and spin-filter assisted digest for quantitative MS/MS.
(§2) The fibril-protein pellets were transferred to spin-filters (0.22 μm), washed twice in PBS (100 μL) and once in 1 M NaCl (100 μL). The fibrils and fibril-bound proteins were dissolved by one-hour incubation in 100 μL 6 M guanidinium chloride followed by elution from the spin-filter. The eluted proteins were loaded onto a 3 kDa MWCO filter unit for filter-assisted unfolding, reduction, alkylation, and trypsin digestion. In brief, samples were washed twice in 8 M urea, once in 8 M urea with 50 mM DTT, once in 8 M urea with 50 mM iodoaceteamide, and twice in 8 M Urea. The filter units were dried by centrifugation (14,000 g in 30 minutes) after every addition. Trypsin digestion was carried out with 0.25 μg sequencing grade trypsin from Sigma Aldrich in 50 mM ammonium bicarbonate overnight at 37 °C. The tryptic peptides were collected by centrifugation, acidified with TFA (0.1%) and micro-purified using POROS R2 column material (Applied Biosystems) packed in P200 pipette tips (Sarstedt).
(§3) LC-MS/MS analyses were performed on an EASY-nLC II system (Thermo Fisher Scientific) connected to a TripleTOF 5600+ mass spectrometer (Sciex) equipped with a NanoSpray III source (Sciex) and operated under Analyst TF 1.6.0 control.
(§4) The micro-purified tryptic peptides were dissolved in 0.1% formic acid, injected and trapped on an in-house packed trap column (2 cm × 100 μm I.D) with RP ReproSil-Pur C18-AQ 3 μm resin (Dr. Maisch GmbH). Peptides were eluted from the trap column and separated on a 15 cm analytical column (75 μm i.d.) packed in-house in a pulled emitter with RP ReproSil-Pur C18-AQ 3 μm resin (Dr. Maisch GmbH). Elution from the analytical column was performed with a linear gradient from 5% to 35% phase B (90% acetonitrile with 0.1% formic acid) over 20 min for protein identification and 50 min for quantitative analysis, respectively.
(§5) All samples were analysed three times, yielding nine MS/MS experiments for each fibril for both plasma and CSF. For the area-based extracted ion chromatogram (XIC) quantification, the acquisition method was set up as an information-dependent acquisition (IDA) experiment collecting up to 25 MS/MS spectra in each 1.6 sec cycle using an exclusion window of 6 sec.
(§6) XIC quantification was based on the average ion intensity of the three most abundant peptides for each protein. Only proteins quantified in at least four out of nine MS/MS experiments per fibril were included in the quantification. The total ion scores were visualized after grouping the proteins according to function (Figure S11).
(§7) For each MS/MS experiment, the ion intensities of the individual proteins were normalized to the total ion intensity of that MS/MS experiment to achieve a relative protein composition. The contribution of each protein was averaged over all nine MS/MS experiments (Tables 1 and 2).

Molecule	Relative composition of CSF proteins bound: Ab1
B1	0.5 ± 0.0 % of total protein
B2	1.2 ± 0.1 % of total protein
B3	0.7 ± 0.0 % of total protein
B4	0.6 ± 0.2 % of total protein

System: T2, Ab2 fibrils
T2 construct: Two structurally distinct fibrils of the Aβ(1–40) peptide associated with AD
Assay: as above
Type: binding, human
Conditions: 4:1 w/w CSF protein:fibril
Protocol: as §1, §2, §3, §4, §5, §6, §7

Molecule	Relative composition of CSF proteins bound: Ab2
B1	0.6 ± 0.2 % of total protein
B2	1.4 ± 0.0 % of total protein
B3	1.1 ± 0.0 % of total protein
B4	1.0 ± 0.3 % of total protein

Molecular target: T3, glucagon fibrils (Homo sapiens, UniProt P01275)
T3 construct: fibrils of the peptide hormone glucagon
Assay: as above
Type: binding
Conditions: 4:1 w/w CSF protein:fibril
Protocol: as §1, §2, §3, §4, §5, §6, §7

T3 sequence (P01275 53-81 limits assumed): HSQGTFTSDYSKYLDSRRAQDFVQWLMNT

Molecule	Relative composition of CSF proteins bound: Glucagon
B1	0.2 ± 0.1 % of total protein
B2	0.4 ± 0.1 % of total protein
B3	0.8 ± 0.1 % of total protein
B4	0.2 ± 0.1 % of total protein

Molecular target: T4, C-36 fibrils (Homo sapiens, UniProt P01009)
T4 construct: the 36 residue C-terminal fragment of α1-antitrypsin (C-36)
Assay: as above
Type: binding
Conditions: 4:1 w/w CSF protein:fibril
Protocol: as §1, §2, §3, §4, §5, §6, §7

T4 sequence (P01009 383-418 limits assumed): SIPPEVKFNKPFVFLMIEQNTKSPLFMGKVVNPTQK

Molecule	Relative composition of CSF proteins bound: C-36
B1	0.4 ± 0.1 % of total protein
B2	0.8 ± 0.4 % of total protein
B3	1.4 ± 0.8 % of total protein
B4	0.7 ± 0.1 % of total protein

Molecular target: αSN fibrils (Homo sapiens, UniProt P37840)
Assay: as above
Type: binding
Parameters: key to Identification status of CSF protein bound: αSN: *: Identified, but not quantified; —: Not identified in any of the samples
Conditions: 4:1 w/w CSF protein:fibril
Protocol: as §1, §2, §3, §4, §5, §6, §7

Molecule	Relative composition of CSF proteins bound: αSN
B1	2.1 ± 0.9 % of total protein

Same assay, conditions: symbol cells

Molecule	Identification status of CSF protein bound: αSN
B2	*
B3	—
B4	*

System: T5, FAS4-AD aggregates
T5 construct: aggregates of a mutated version of the FAS1-4 domain of TGFBIp
Assay: as above
Type: binding, human
Parameters: key to Identification status of CSF protein bound: FAS4-AD: *: Identified, but not quantified; —: Not identified in any of the samples
Conditions: symbol cells
Protocol: as §1, §2, §3, §4, §5, §6, §7

Molecule	Identification status of CSF protein bound: FAS4-AD
B1	*
B2	—
B3	—
B4	—
